This series deals with the molecule itself. Briefly: SEC. (SEC sorts molecules by how far they enter the pores of the column.)

B1: Xanthomonas albilineans Cas2 (enzyme)
chain: MMVLVSYDVSTSSPGGDKRLRKVAKACRDLGQRVQFSVFEIEVDPAQWTALRQRLCDLIDPDIDSLRFYHLGAKWEARVEHVGAKPSLDLKGPLIF
notes: Cas2 of Xanthomonas albilineans, subtype I-C CRISPR-Cas system; synthetic cas2 gene in pET21a; residue numbers in the structure run to 96 (C-terminal tails 87-96 / 86-96 not modelled); also called XaCas2; WT XaCas2; not shown: His6, C-terminal, kept
As for B1, the stoichiometry N (commonly the number of molecules, sites or subunits per partner or assembly) came to 2.

(Values after publication PMC5438308, “Structural and dynamic insights into the role of conformational switching in the nuclease activity of the Xanthomonas albilineans Cas2 in CRISPR-mediated adaptive immunity” (Structural Dynamics, 2017).)
